Test results published in patent US8513188B2, “Formulations comprising cyclic compounds” (priority 2006, dated 2013).

What was measured:
[1] = Dissolution of protein Rantes in organic medium (DCM/MeOH), HPLC of supernatant; assay type: physicochemical; details: for presence of protein in HPLC trace of supernatant: centrifuged
Description: Two samples of 0.2 mg each of the folded protein Rantes were taken. One sample was used as standard and dissolved in a fixed volume (300 ul) of water/acetonitrile 50% v/v and 30 ul where injected onto HPLC (FIG. 6, HPLC section A) .
The second sample was suspended in a mixture of DCM/MeOH 70%30% VN, (300 ul). The suspension with solid particles was centrifuged and the surnatant injected onto HPLC volume (30 ul).
Then, 2.0 mg of Nonactine were added and the mixture was vortexed. […] Then, the mixture was centrifuged and 30 ul of the supernatant were injected onto HPLC. […] In the HPLC section C the protein has a different retention time (early elution) from the standard in section A. This phenomenon could be explained by the high percentage of organic solvents (like CH2Cl2 depicted in the figure) that carried through the protein complex with nonactine causing early elution.

[2] = test system: mice; experiment: In vivo insulin delivery in mice by sub-lingual administration, blood glucose decrease; details: dose 1, sublingual
Description: Dose 1: 0.5 mg of desalted human insulin with TFA counter-ions (corresponds to 0.4 mg of non treated standard insulin) are mixed with 60 mg of 18-crown-6. […] The final volume is approximately 310 μl.
The final volume is approximately 310 μl.
Mice were treated with 6.5 μl of mixture 1 and 2, respectively. In dose 1, each mouse was treated with approximately 10 μg of desalted human insulin with TFA counter-ions (corresponds to 8 μg of non treated standard insulin). In dose 2, each mouse was treated with approximately 52 μg of desalted human insulin with TFA counter-ions (corresponds to 41.6 μg of non treated standard insulin).
Results: Insulin Delivery is Measured by Blood Glucose Decrease.

[3] = test system: Caco-2 cells; details: insulin incorporated into liposome according to Sigma preparation, no 18-crown-6
Description: Liposomes were purchased from Sigma-Aldrich (pre-liposome formulation 8; product No. L3531) and used according to the following procedure. Alternatively, same ingredients were purchased by other suppliers (Avanti), and liposomes were prepared according the procedure indicated by Sigma. Insulin passage was measured by HPLC injection of samples in the receiving chamber.
The organic mixture containing insulin was mixed with the lipid mixture of Sigma, then solvent was evaporated or lyophilized. Water addition generated liposomes that were tested for delivery in Caco-2 cells.

[4] = dose 2: 2.6 mg desalted human insulin + 60 mg 18-crown-6 in about 310 ul mixture
Description: Dose 2: 2.6 mg of desalted human insulin with TFA counter-ions are mixed with 60 mg of 18-crown-6. To these solids, 250 μl of a mixture is added, the mixture being composed of 200 μl of a 50% mixture of Propylen glycole and 50% glycerol, 200 mg of mono-decanoyl-glycerol and 100 μl of Cremofor EL. The final volume is approximately 310 μl.

[5] = test system: Caco-2 cells; details: insulin at same concentration in physiological buffer, without formulation agent and organic vehicle
Description: Should insulin pass through the Caco-2 cell lines, it is found in the receiving chamber.
Insulin Concentration: 3 mg in 125 μl of olive oil/Peg, 92%/8%, v/v
Vehicle: olive oil/Peg (esaethylenglycol)
Positive control: Ibuprofen: 1 mg in 125 μl physiological buffer.
After vortex, 50 μl of the final mixture are added to the caco-2 cell well in double.
Active Sample Preparation (Insulin with Vehicle & Formulation Agent)
After MeOH evaporation, 115 μl of olive oil and 10 μl Peg are added. Vortex for 2-3 minutes. After vortex, 50 μl of the final mixture are added to the Caco-2 cell well in double.
Control (Insulin with Formulation Agent in Physiological Buffer; No Organic or Non-Aqueous Vehicle Present)
Vortex the mixture for 2-3 minutes. […] Then methanol is evaporated and 125 μl of physiological buffer are added; 50 μl of the above solution are added to the Caco-2 cell well in double.

Molecule: Rantes: folded protein Rantes, a chemokine
- presence of protein in HPLC trace of supernatant ([1]; 0.2 mg Rantes suspended in 300 ul DCM/MeOH 70%/30%, no Nonactine): no presence of the protein in the chromatogram

Molecule: Insulin: human insulin, previously desalted; with TFA counter-ions in Example 8
- effect on blood glucose (insulin delivery) ([2]; about 10 ug desalted human insulin with 18-crown-6, compared with IP injection): close to the effects of IP injection
- actual delivery ([2]; dose about 7 times the injected control dose): around 10%
- insulin passage through Caco-2 cells [3]: did not result measurable insulin passage
- solubility of insulin in the dose mixture [4]: precipitation of insulin occurred
- insulin passage across Caco-2 cells [5]: does not cross caco-2 cells

Molecule: C[C@@H]1C[C@H]2CC[C@H](O2)[C@H](C)C(=O)O[C@@H](C)C[C@@H]2CC[C@@H](O2)[C@@H](C)C(=O)O[C@H](C)C[C@H]2CC[C@@H](O2)[C@H](C)C(=O)O[C@@H](C)C[C@@H]2CC[C@@H](O2)[C@@H](C)C(=O)O1 [Nonactine]
- presence of protein in HPLC trace of supernatant ([1]; 0.2 mg Rantes in 300 ul DCM/MeOH 70%/30% + 2.0 mg Nonactine, versus water/acetonitrile standard): presence of the peptide in similar proportion as per the area of the standard
- appearance of the mixture after addition of Nonactine ([1]; 0.2 mg Rantes in 300 ul DCM/MeOH 70%/30% + 2.0 mg Nonactine, vortexed): clear solution
